The results in this text go back to the domain aggregation screens of Martell et al. (2025).

The data set can be described thus: soluble fraction after stress (log2 fold change); higher = more stays soluble; pooled small domains, quantitative proteomics. The settings on record: stress: 50 degC. The method, boiled down:
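Quantitative proteomics served as the high-throughput read-out for pooled custom libraries of small protein domains. Each was stressed at 50°C. Aggregation propensity is expressed as the base-two log fold change in soluble protein after stress. A higher value means a larger share of the protein remains in solution.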
Consider “HMQYTTDEVRERVLSVLNQLLLRWIVREGKDMFNIQANAVEISEGIKGELNTELEKIGLAATGFQIDSV”, for which the “soluble fraction (log2)” value is -0.52.

In the case of “HMRADRLISMLMLLQARGKITAEELAVELGVSQRTIYRDIEALSFAGVPVYAERGPGGGIGLLEPY”, the “soluble fraction (log2)” value is -1.7.

Turning to “HMRAEPNSNYSLAIIYKNRYDIAVKKKDAVKEVEYGKMVYEYLNKYVVLSGNKSAKYKKILNYFSSY”, the “soluble fraction (log2)” value is -3.04.

Consider “HMRAFTPSEAQVAHARRVMEAFWQHQREGHGAFALDGKMVDAPIVKAAARVLARAGLQDPNHPIHLA”, for which the “soluble fraction (log2)” value was -0.0227.

With “HMRALPFSFANRHGVLIREISDGVAHAVYRIGSSPLGLAEARRFVGMPLMLTPVAREAFDSLLQQTYEQG”, the “soluble fraction (log2)” value was -1.6.

For “HMRAPEIEAARSDLDVGQTVQIVRHLHGNQYEVFYRGAQWQAEAVGSSGANDAQTAVITGKNGNILLIQI”, the “soluble fraction (log2)” value was -0.0658.

As to “HMRAVPTKLAPFVEVLKAMLEADGHRPKAQRRTAKALHLELISRGYAGGYTRLTDYIRDWRQQQG”, the “soluble fraction (log2)” value was -2.34.

For the sequence “HMRDANYFINPIHEWQKRYEALRASFVDRLPAQAVAQRFGYTITYIHLLRHQFKSGKIDFSEPVPEG”, the “soluble fraction (log2)” value was -4.61.

Regarding “HMRDFTQPQTASIGPRMREALARGTMTVEELREQFRTQEFPHESVRTAFLEELERVAAELGLA”, the “soluble fraction (log2)” value was -0.0676.

On to “HMRDISTDTSAWTFQDIKRYYDPQDLLTEKQVGQALSLIKGRNLNPLLNEVYIVAYKKKNGGAEFSLIV”, for which the “soluble fraction (log2)” value is -0.28.

As to “HMRDPLNTGFRQTLKDIVNSLPKNELYSPGVREEYIYPKIGVTSLGMEASMVLNGLISSRRKNIELKEKN”, the “soluble fraction (log2)” value was determined as 0.447.

“HMRDPVDKDNYLGDWDKNKTYPAGYVMTFGDKNYLALQEVPAGTKPGATDPDPFWVLDTGKTLKD”: the “soluble fraction (log2)” value is -0.0888.

For “HMRDQARQFFIDTWAKFQRHDALTPLEEKTAAIIALHPEYHRVLQNPESFITTDWRPESGDINPFMHL”, the “soluble fraction (log2)” value was -1.34.

With “HMRDSYEVEGRIASVSPAAGTFVVAGVTVDYTGARFVGGTVAQLAPGVKVEVEGRRLANGTLQAREIEFD”, the “soluble fraction (log2)” value was 0.00935.

As for “HMRDSYTFEDIEKLKDSYLQDSEKALEKLISIYEDTNQSLAIRTAALDIITDSQDPTFKLALEKIIS”, the “soluble fraction (log2)” value was determined as 0.0263.

“HMRDTAKTLLAMEVVGENNKKNLQAFGIQKGDQNYQTAVVVRLMQKALMEGDTSAIRLIGELTGD”: the “soluble fraction (log2)” value is -0.197.

Regarding “HMRDTLSKQLLTEEMVLQFIREMREHDPGIGGEKLHAMYLGRFGRDYEYMVGRDKMEMIIAENNLNVR”, the “soluble fraction (log2)” value was -0.736.

As for “HMRDYDFGNLLYKLRIESGYTQKDIADMLGVTDKAVSKWENGIAKPTTNNIKLLSTIYNVSVEELLNG”, the “soluble fraction (log2)” value is -0.254.

Take “HMRDYKTALQEWVQRTPGQPIAYRLVDELGPDHARVFVMEVTVGGQSAGQGRGRTKKEAEQLAARAALEKL”: the “soluble fraction (log2)” value is -0.0907.

Regarding “HMREEIESVYKTLAVTEIPYIARGNSARLGSGIQTVYDFYRMEGMQVSKILGRNGSVLWLELHG”, the “soluble fraction (log2)” value worked out at 0.126.

As to “HMREEMYGLIGFITTSEVTDTFGQMEIKLENEPEMRINVRTNPGESLARGDAAKIISFNNSNGTFLVELTK”, the “soluble fraction (log2)” value was -0.474.

“HMREFQVMKQELQEMVHQRLDMSTELSDEAIGDVIDEVIMEKSRNMYISSVTKLTLRQELFNAIR”: the “soluble fraction (log2)” value was -0.629.

Turning to “HMREGRERRLSQLLSYLRTHHILTRSEYVKLTGLSPTAASSELKTFVTAGHIVRKGIASHSTYRLPH”, the “soluble fraction (log2)” value is -1.71.

As to “HMREKLKEYVHLLFAGTVGKEDMEQEILQNTLDRFDDWVARGFSEEDAYRKAVSGIGDIDALLG”, the “soluble fraction (log2)” value was -0.288.

Turning to “HMREPDPELTASIKSMAESNDQSERLVALAQLSEQRAVDPEVADQILLIALLDEDPIIRGQAVYA”, the “soluble fraction (log2)” value was found to be 0.264.

In the case of “HMRERLPFGFAQSKKVVLLSTESDTPKVLSVNWPSLDLYAELKRVIGRAFLLEIVSEEEFQAQVSDAYQRD”, the “soluble fraction (log2)” value is -2.24.

In the case of “HMREVGVPNLRGLTAEEAQIVLSNAGLNLRTEPIRRVHETITVGRIAEQDPMPDLTIRSQRSVTTWLSSGP”, the “soluble fraction (log2)” value was found to be 0.317.

For “HMREVTVGSAVRLKKGAKTYSGGSLASFVYERNHQVTQLSGDRAVISFKGTVVAAVHKDDLIL”, the “soluble fraction (log2)” value is -0.916.

As for “HMREVVLNRIGSVAVQRATTRTWEEWVVTLDAEGMRGKEHRDVVGHLLRAHELTSWWAQMVSVGYEQSRGQ”, the “soluble fraction (log2)” value is -0.166.

As to “HMREYRITAEEGHPRIDVFLAGRPEIGLSRSRIQALIDEGQVTLNGAMPKARQAVNPGDVIVVRVPDPE”, the “soluble fraction (log2)” value stood at 0.263.

Consider “HMRFEWFDTLTDREKEIFGLIATGFDNQQIADRLQLAEQTVRNNISTIYSKLEVKDRFEIIRLANTI”, for which the “soluble fraction (log2)” value was -0.706.

As to “HMRFKPLAEILAAVQTRYAGRVLDVELDRDQAGRNVYEVKLLAADGSRREIHIDAVTGKEVSL”, the “soluble fraction (log2)” value was -0.0325.

For the sequence “HMRGAIKMAEEQMAGHKKIGSISGTAPTQGELEKKFAMAAAQMGARYYVITGLSNNNYAFGNADIY”, the “soluble fraction (log2)” value was -0.316.

Regarding “HMRGDEDTGVWPTPMKRAYIDSLLKGYPTGVTMIVKPPGASHTTKWMILDGANRARALRDFMNDEFMI”, the “soluble fraction (log2)” value is -0.163.

With “HMRGFTDFEHIEKEYLATIEKLNWPDGVTLPDKLEGEDTGTSFQVGYGDTRASNLWEYSWMK”, the “soluble fraction (log2)” value was -0.0186.

Turning to “HMRGIPEEVADVAIQWVARLDSNEISDADRAAFFAWLDASPINRWAYNDISESWAKLSILNEMGH”, the “soluble fraction (log2)” value was -1.6.

In the case of “HMRGLFTVYMVGEKASRVGELDEEMVYESRIGDVFALGATSWRIEEITHDRVLVSPAYGQPGRLPFWH”, the “soluble fraction (log2)” value was -2.14.

On to “HMRGLGDLEPVDSLGKIRIDDGHMVLAFGRHKGRHLSEVQAEDPRYIHWLLSPKGIEDVEAREKVKVYLEG”, for which the “soluble fraction (log2)” value is -0.0024.

For the sequence “HMRGLLSQREHDVLDLVARGFSYGEIARLRSISVSTVQTHIKNLYRKLAVSSRTEAVYEAKQMGI”, the “soluble fraction (log2)” value is -1.59.

In the case of “HMRGLVPEIVGTLEGEIRAGTLAVGQKLPTEAEIMARFDVSRTVVREALSRLQASDLVETRHGIGTFVSAR”, the “soluble fraction (log2)” value was -0.368.

In the case of “HMRGPDLSKDFHEYISSQWMFFGRNAYQIAEQINKDTQLMSKYGKTTPSGVHYHIKQIQQEMEN”, the “soluble fraction (log2)” value is -0.398.

Turning to “HMRGPPQVLVDVELEDGRVGQIGVRNGDDATELAETFVRAFRLEQSFVGRLANVIQGKIRELLHSQ”, the “soluble fraction (log2)” value is -0.889.

As to “HMRGSRIFSGDVSPLTLPANSPFFSGYTEFKPGDVYVERSATNIAMWEWKSQPGGYTWVKTADIA”, the “soluble fraction (log2)” value was -0.169.

“HMRGYGDRIRILRERAGITIEQLAERLGVAPYFIRRTELSEVYPTKPYIEALADVLNIDASYLARHI”: the “soluble fraction (log2)” value is -1.81.

On to “HMRHYVLKENNGVIAIYKVNQENEAVFKENTQIQVQYLPEVDLINLKKGIYAIGEEKLNSILEDF”, for which the “soluble fraction (log2)” value is -0.613.

For “HMRIDSFEDARRRFEYDYLTRLLKLTQGSVTQAAKLAKRNRTEFYKLLQRHGIEAAHFKPTS”, the “soluble fraction (log2)” value was -0.581.

Consider “HMRIDVWLAENGFAPSRQKAQDLIAAGRVFQTDPSGRRQKVSKASAAVDPALSPKIEVIPDPE”, for which the “soluble fraction (log2)” value came out at 0.161.

Turning to “HMRILGIDPGYAITGYSIIDYVGNKFKLIDSGAVLTKAGVSFPLRLTKIYDDLSMIIDEYKPDA”, the “soluble fraction (log2)” value was -0.207.

For “HMRIPANIAEDIKKLQKKEHHLHHHLGRDPFDDELAKELEWDTEQVSEIRQMIKNPELLEELLEAEREEE”, the “soluble fraction (log2)” value is 0.172.

Regarding “HMRITEQRRTLAKLFADTPGYLSPKDVYDYMGRFYPGLSFDTVYRNLRLLDELGVLEQVVFEDGVKFK”, the “soluble fraction (log2)” value was -0.718.
